First the molecules themselves.
B3: 15B6 anti-mesothelin antibody (IgG2b) (antibody, V domains shown)
VH: EVQLQQSGPVLVKPGASVKISCKASGYSFTGYYMHWVRQSLVKRLEWIGRINPYTGVPSYKHNFKDKASLTVDKSSSTAYMELHSLTSEDSAVYYCARELGGYWGQGTTLTVSS
VL: QAVVTQESALTTSPGETVTLTCRSSTGAVTTGNYPNWVQEKPDHLFTGLIAGTNNRAPGVPARFSGSLIGDKAALTITGAQTEDEAIYFCALWFSSHWVFGGGTKLTVL
notes: Mouse hybridoma monoclonal antibody, IgG 2b; also called Mab 15B6; antibody 15B6
B4: 2B4 anti-mesothelin antibody (IgG2a) (antibody, V domains shown)
VH: EVQLQQSGPELVKPGASVKISCKASGYPFTGHYMHWVKQGHVKSLEWIGRINPYTGAINYNQNFKDKASLSVEKSSSTAYMGLHSLTSEDSAVYYCVRDLGGGYWGQGTTLTVSS
VL: QAVVTQESALTTSPGETVTLTCRSSTGAVTTSNYANWVQEKPDHLFTGLIAGTNNRAPGVPARFSGSLIGDKAALTITGAQPEDEAIFFCALWYSSHWVFGGGTKLTVL
notes: Mouse hybridoma monoclonal antibody, IgG 2a; also called antibody 2B4
B5: 7B5 anti-mesothelin antibody (IgG1) (antibody, V domains shown)
VH: EVQLQQSGPELVKPGTSVKISCKASGYPFTGHYMHWVKQGHVKSLEWIGRINPYTGAINYNQNFKDKASLTVEKSSSTAYMGLHSLTSEDSAVYYCVRDLGGGYWGQGTTLTVSS
VL: QAVVTQESALTTSPGETVTLTCRSSTGAVTTSNYANWVQEKPDHLFTGLIAGTNNRAPGVPARFSGSLIGDKAALTITGAQPEDEAMFFCALWFGSHWVFGGGTKLTVL
notes: Mouse hybridoma monoclonal antibody, IgG 1; also called antibody 7B5

The target of assay [1] is B4. The assay is described as follows: competition ELISA, antibody 30 ng/ml on coated MSLN-Fc, peptide titrated. Here is the method:
(§1) A competition assay was completed using the following peptides: peptide 1 having the sequence CLVLDLSMQEALS (SEQ ID NO: 61) and peptide 2 having the sequence CSMQEALS (SEQ ID NO: 62). An ELISA plate was coated with MSLN(M)-Fc or MSLN(V)-Fc. After overnight incubation, the plates were blocked and washed. The anti-mesothelin stalk antibodies of Example 1 (30 ng/ml) and peptide 1 or peptide 2 were added at different concentrations (100 micrograms/ml to 0.00001 micrograms/ml). After washing, anti-mouse IgG-HRP conjugate were added. The OD was then measured with ELISA.
Background: An ELISA detects its analyte on a solid surface through an enzyme-linked reagent.

Assay [2] has as its target B5. Described as above. Here is the method:
as §1

For assay [3], the target named is B3. The description is as above. The protocol: as §1
For assay [4], the target named is T1, Fc-mesothelin 296-599 (human, UniProt Q13421 296-599).
T1 construct: The order of the parts follows the printed name and is not otherwise stated; not shown: Fc part
Briefly: ELISA on Fc-mesothelin 296-599.

For assay [5], the target named is T2, mesothelin (296-585) attached to mouse transferrin receptor (TFR) transmembrane domain, on AB1-L9 cells (human; mouse, UniProt Q13421 296-585).
T2 construct: The order of the parts is as printed; also called AB1-L9 cell line
The assay is described as follows: binding to transfected AB1-L9 cells.

T2 sequence (Q13421 other isoform, or with tags, fused parts or gaps): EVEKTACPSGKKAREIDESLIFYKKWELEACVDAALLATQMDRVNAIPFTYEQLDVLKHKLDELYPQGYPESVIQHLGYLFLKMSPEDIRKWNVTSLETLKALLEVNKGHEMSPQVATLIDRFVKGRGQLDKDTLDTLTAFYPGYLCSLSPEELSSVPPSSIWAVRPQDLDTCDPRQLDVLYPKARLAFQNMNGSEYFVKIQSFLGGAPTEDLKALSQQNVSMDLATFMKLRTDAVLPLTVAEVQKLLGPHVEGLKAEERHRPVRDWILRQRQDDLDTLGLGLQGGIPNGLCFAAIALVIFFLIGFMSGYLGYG
T1 sequence (Q13421 other isoform, or with tags, fused parts or gaps): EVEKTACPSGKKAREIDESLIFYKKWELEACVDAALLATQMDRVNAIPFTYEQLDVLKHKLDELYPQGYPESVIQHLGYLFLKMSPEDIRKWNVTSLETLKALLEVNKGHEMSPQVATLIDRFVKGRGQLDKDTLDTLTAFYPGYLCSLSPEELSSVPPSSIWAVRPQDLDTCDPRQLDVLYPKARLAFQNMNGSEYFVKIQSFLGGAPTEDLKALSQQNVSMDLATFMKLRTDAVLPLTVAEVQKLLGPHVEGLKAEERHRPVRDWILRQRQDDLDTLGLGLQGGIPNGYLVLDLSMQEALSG

B1: peptide 1 (CLVLDLSMQEALS) (peptide)
peptide: CLVLDLSMQEALS
notes: Mesothelin 587-598 with an added N-terminal cysteine
Consider B1, for which the binding result in assay [1], in assay [2] and in assay [3] was “binds” each time.

B2: peptide 2 (CSMQEALS) (peptide)
peptide: CSMQEALS
notes: Mesothelin 592-598 with an added N-terminal cysteine
Turning to B2, the binding result in assay [1], in assay [2] and in assay [3] was “no binding” in each case.
For B3, the binding result in assay [4] is “binds”; in assay [5], “no binding”.
For the molecule B4, the figures for the binding result in assay [4] and in assay [5] were “binds” and “no binding”, respectively.
Consider B5, for which the binding result in assay [4] is on record as “binds”; in assay [5] it was “no binding”.
